From paper PMC5849717
Like-named read-outs stand apart in the source and are kept apart here.

Legend:
[1] = molecular target: FLAG-mYFP-β2AR (β2-adrenergic receptor), total receptor pulled down with anti-FLAG (mouse) (UniProt P18762); experiment: single-molecule pulldown (SiMPull) with photobleaching step analysis; lysates (10 mM Tris pH 7.9, 0.1% DDM, 150 mM NaCl, 2 mM EDTA) of cells expressing mYFP-tagged receptor, untreated or ISO 5 min; captured on slides by biotinylated anti-FLAG or by phospho-specific β2AR antibodies with biotinylated secondary IgG; TIRF; bleaching steps of mYFP counted; percent dimer calculated assuming 75% active mYFP
[2] = molecular target: FLAG-mYFP-β2AR (β2-adrenergic receptor), total receptor pulled down with anti-FLAG (mouse) (UniProt P18762); experiment: single-molecule pulldown (SiMPull) with two-colour co-localisation; FLAG-mYFP-β2AR and FLAG-mCherry-β2AR co-expressed 1:1 in HEK293, ISO-treated; lysate pulled down with anti-FLAG or phospho-specific antibodies; mCherry and mYFP spots within 1 pixel (~150 nm) counted as co-localised; overlap = co-localised mYFP / total mYFP; reference mCherry-mYFP fusion gives 58.8% overlap
[3] = molecular target: GRK-phosphorylated β2AR (FLAG-mYFP-β2AR pulled down with anti-pS355/356) (mouse) (UniProt P18762); experiment: single-molecule pulldown (SiMPull) with photobleaching step analysis; lysates (10 mM Tris pH 7.9, 0.1% DDM, 150 mM NaCl, 2 mM EDTA) of cells expressing mYFP-tagged receptor, untreated or ISO 5 min; captured on slides by biotinylated anti-FLAG or by phospho-specific β2AR antibodies with biotinylated secondary IgG; TIRF; bleaching steps of mYFP counted; percent dimer calculated assuming 75% active mYFP
[4] = molecular target: GRK-phosphorylated β2AR (FLAG-mYFP-β2AR pulled down with anti-pS355/356) (mouse) (UniProt P18762); experiment: as above; remark: listed apart in the source
[5] = molecular target: GRK-phosphorylated β2AR (FLAG-mYFP-β2AR pulled down with anti-pS355/356) (mouse) (UniProt P18762); experiment: single-molecule pulldown (SiMPull) with two-colour co-localisation; FLAG-mYFP-β2AR and FLAG-mCherry-β2AR co-expressed 1:1 in HEK293, ISO-treated; lysate pulled down with anti-FLAG or phospho-specific antibodies; mCherry and mYFP spots within 1 pixel (~150 nm) counted as co-localised; overlap = co-localised mYFP / total mYFP; reference mCherry-mYFP fusion gives 58.8% overlap
[6] = molecular target: PKA-phosphorylated β2AR (FLAG-mYFP-β2AR pulled down with anti-pS261/262) (mouse) (UniProt P18762); experiment: single-molecule pulldown (SiMPull) with photobleaching step analysis; lysates (10 mM Tris pH 7.9, 0.1% DDM, 150 mM NaCl, 2 mM EDTA) of cells expressing mYFP-tagged receptor, untreated or ISO 5 min; captured on slides by biotinylated anti-FLAG or by phospho-specific β2AR antibodies with biotinylated secondary IgG; TIRF; bleaching steps of mYFP counted; percent dimer calculated assuming 75% active mYFP
[7] = molecular target: PKA-phosphorylated β2AR (FLAG-mYFP-β2AR pulled down with anti-pS261/262) (mouse) (UniProt P18762); experiment: single-molecule pulldown (SiMPull) with two-colour co-localisation; FLAG-mYFP-β2AR and FLAG-mCherry-β2AR co-expressed 1:1 in HEK293, ISO-treated; lysate pulled down with anti-FLAG or phospho-specific antibodies; mCherry and mYFP spots within 1 pixel (~150 nm) counted as co-localised; overlap = co-localised mYFP / total mYFP; reference mCherry-mYFP fusion gives 58.8% overlap

Sequence of PKA-phosphorylated β2AR (FLAG-mYFP-β2AR pulled down with anti-pS261/262), P18762 1-418 (receptor; phosphoserine at 261/262; phosphoserine at 261/262; other documents disagree on this pair) (P18762 whole entry): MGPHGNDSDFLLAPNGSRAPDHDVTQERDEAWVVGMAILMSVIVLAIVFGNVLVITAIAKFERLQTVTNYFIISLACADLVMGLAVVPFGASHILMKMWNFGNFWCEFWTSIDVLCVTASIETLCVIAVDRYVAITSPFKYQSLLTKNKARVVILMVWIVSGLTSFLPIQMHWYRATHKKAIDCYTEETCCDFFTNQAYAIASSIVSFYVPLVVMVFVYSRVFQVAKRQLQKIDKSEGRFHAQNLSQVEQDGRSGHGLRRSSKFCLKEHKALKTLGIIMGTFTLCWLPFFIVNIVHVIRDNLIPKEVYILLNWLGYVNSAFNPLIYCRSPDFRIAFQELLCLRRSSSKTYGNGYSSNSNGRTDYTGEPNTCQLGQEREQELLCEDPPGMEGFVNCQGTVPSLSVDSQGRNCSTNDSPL
Sequence of GRK-phosphorylated β2AR (FLAG-mYFP-β2AR pulled down with anti-pS355/356), P18762 1-418 (receptor; phosphoserine at 355/356; phosphoserine at 355/356; other documents disagree on this pair) (P18762 whole entry): as above
Sequence of FLAG-mYFP-β2AR (β2-adrenergic receptor), total receptor pulled down with anti-FLAG, P18762 1-418 (receptor; other documents disagree on this pair) (P18762 whole entry): as above

“FLAG-mYFP-β2AR (β2-adrenergic receptor), total receptor pulled down with anti-FLAG, P18762 1-418 (receptor; other documents disagree on this pair)” showed a percent dimers [1] of 42.7%, a stoichiometry N [1] of 2 and a percent overlap between mYFP and mCherry copies [2] of 13.2%.
“GRK-phosphorylated β2AR (FLAG-mYFP-β2AR pulled down with anti-pS355/356), P18762 1-418 (receptor; phosphoserine at 355/356; phosphoserine at 355/356; other documents disagree on this pair)” gave a percent monomers [3] of 86.5%, a percent dimers [4] of 12% and a percent monomers [4] of 88%. For the same substance, the percent overlap between mYFP and mCherry copies [5] was under 3.2%.
With “PKA-phosphorylated β2AR (FLAG-mYFP-β2AR pulled down with anti-pS261/262), P18762 1-418 (receptor; phosphoserine at 261/262; phosphoserine at 261/262; other documents disagree on this pair)” the percent dimers [6] was 68.8%, the stoichiometry N [6] was 2 and the percent overlap between mYFP and mCherry copies [7] was over 20.4%.
